From publication PMC12441119 (2025) come the findings set out here.

Positions count from the first letter of the chain named.

Experiment [1] has as its target T1, STK4 (residues 1–326) K59R (human, UniProt Q13043 1-326, K59R).
T1 sequence: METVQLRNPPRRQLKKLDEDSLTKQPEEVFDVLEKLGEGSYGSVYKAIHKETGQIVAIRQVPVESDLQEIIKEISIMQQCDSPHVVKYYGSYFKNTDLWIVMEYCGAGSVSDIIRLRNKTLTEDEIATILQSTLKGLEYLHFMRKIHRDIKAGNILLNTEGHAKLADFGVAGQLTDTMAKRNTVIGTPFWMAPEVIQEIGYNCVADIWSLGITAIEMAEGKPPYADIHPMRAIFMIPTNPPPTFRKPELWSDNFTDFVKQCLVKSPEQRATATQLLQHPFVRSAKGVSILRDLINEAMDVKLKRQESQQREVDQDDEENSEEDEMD
The experiment can be described thus: ITC.

For experiment [2], the target named is T2, STK4 (residues 11–326) K59R (human, UniProt Q13043 11-326, K59R).
T2 sequence: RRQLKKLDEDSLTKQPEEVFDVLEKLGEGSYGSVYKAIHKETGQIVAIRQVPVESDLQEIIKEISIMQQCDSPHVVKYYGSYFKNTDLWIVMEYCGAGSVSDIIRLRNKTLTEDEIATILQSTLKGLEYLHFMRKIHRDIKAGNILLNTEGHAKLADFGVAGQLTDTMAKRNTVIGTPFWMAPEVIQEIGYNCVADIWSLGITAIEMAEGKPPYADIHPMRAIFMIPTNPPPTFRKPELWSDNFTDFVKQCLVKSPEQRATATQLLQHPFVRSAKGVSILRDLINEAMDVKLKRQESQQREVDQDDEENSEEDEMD
The experiment can be described thus: ITC.

For experiment [3], the target named is T3, STK4 (residues 1–326) K59R N239A (human, UniProt Q13043 1-326, K59R | N239A).
T3 sequence: T1 sequence with N239A
In words: ITC; printed as R239A.

B1: HOIP (residues 697–1072) (domain or fragment)
chain: QECAVCGWALPHNRMQALTSCECTICPDCFRQHFTIALKEKHITDMVCPACGRPDLTDDTQLLSYFSTLDIQLRESLEPDAYALFHKKLTEGVLMRDPKFLWCAQCSFGFIYEREQLEATCPQCHQTFCVRCKRQWEEQHRGRSCEDFQNWKRMNDPEYQAQGLAMYLQENGIDCPKCKFSYALARGGCMHFHCTQCRHQFCSGCYNAFYAKNKCPEPNCRVKKSLHGHHPRDCLFYLRDWTALRLQKLLQDNNVMFNTEPPAGARAVPGGGCRVIEQKEVPNGLRDEACGKETPAGYAGLCQAHYKEYLVSLINAHSLDPATLYEVEELETATERYLHVRPQPLAGEDPPAYQARLLQKLTEEVPLGQSIPRRRK
In the case of B1, the Kd turned out to be 36.4 µM in experiment [1] and 34.7 µM in experiment [2].

B2: HOIP (residues 854–1072) (domain or fragment)
chain: EYQAQGLAMYLQENGIDCPKCKFSYALARGGCMHFHCTQCRHQFCSGCYNAFYAKNKCPEPNCRVKKSLHGHHPRDCLFYLRDWTALRLQKLLQDNNVMFNTEPPAGARAVPGGGCRVIEQKEVPNGLRDEACGKETPAGYAGLCQAHYKEYLVSLINAHSLDPATLYEVEELETATERYLHVRPQPLAGEDPPAYQARLLQKLTEEVPLGQSIPRRRK
In turn, B2 came in with an equilibrium dissociation constant (Kd) in experiment [3] of 149 µM.
